Variants at the floor of the assay were thinned out.

The labels stand for the following.
B1: TPR 5TU (parent)
chain: GGAUCUUCUCGAUCUAACAAAAAAGACAAAUCUGCCACAAAGCUUGAGAGCAUCUUCGGAUGCAGAGGCGGCAGCCUUCGGUGGCGCGAUAGCGCCAACGUUCUCAACUAUGACACGCAAAACGCGUGCUCCGUUGAAUGGAGUUUAUCAUG

In the series the parent is B1. Nature of the series: polymerase ribozyme fitness, log enrichment relative to wild type (log ratio); higher = more active; in vitro selection for triplet polymerase activity. The method, boiled down: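 A heterodimeric triplet polymerase ribozyme had each of its subunits mutagenized by PCR into a library, which was transcribed. One round of in vitro selection, done in triplicate, annealed each library with a biotinylated primer, its partner subunit and triplets, then incubated it frozen at −7 °C before gel excision of extended constructs, streptavidin-bead capture and RT-PCR. Fitness is the logarithm of genotype enrichment relative to wild-type enrichment, based on Illumina sequencing of inputs and outputs and inverse-variance-weighted replicate averages. A base-2 logarithm is used, and genotypes were kept only with ≥10 input reads and ≥1 read per output.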
For G48A A106G, the “polymerase ribozyme fitness (log ratio)” value was -1.77. The value for A40U C85A U144A was -0.577; that for A30C G48C G50U A98G A107G C118U A120C G141U was not above -4.2.

For G84A A106U G141U, the “polymerase ribozyme fitness (log ratio)” value is -0.79. Under G46A C93U stands -1.21; under A19U C79A, not above -4.2; under C54U G84C C93U U144C, not above -4.2.

On to A21C A24U C38G C93U G117A, for which the “polymerase ribozyme fitness (log ratio)” value is -2.15. Under C18G A20C G34U U55G C118U C123U stands -4.18.

For the variant C5G C132U U146G, the “polymerase ribozyme fitness (log ratio)” value was -3.69.

Consider G65A C69G U78A U90G C96A G100A C108A U145A, for which the “polymerase ribozyme fitness (log ratio)” value was not above -4.2. Under G58A A60C C63A U82G G88C C95A A113G A147G stands not above -4.2. Under C27A A66C A73C G92U U148C stands not above -4.2. Under U13A A52G U82A stands -0.721; under A60G C87U U101A, -0.517; under U4G G58A C85U A115U U144G, -2.13. On to A21C G25A U127G, for which the “polymerase ribozyme fitness (log ratio)” value was not above -4.2. Regarding A24U A52G C69G G70C G88A, the “polymerase ribozyme fitness (log ratio)” value was not above -4.2. Under C18G A40U stands 0.0147. In the case of A12U U56A C93U A147G, the “polymerase ribozyme fitness (log ratio)” value was -1.6. Turning to G25U A47G A60G C75A A91U A122U G141C A142G, the “polymerase ribozyme fitness (log ratio)” value was not above -4.2. Under C14G U15G A19C A22C A41G G58C C93U stands -3.91; under C54A C105U, -0.396; under C87U A107U, -3.34. Under A22G G84A A91C C103G U104G stands not above -4.2; under A3C C85U C96U, -0.556. Under U45G G84U A113U stands -4.1; under A60G G70A C108G, not above -4.2. As to U56A G83C G100U, the “polymerase ribozyme fitness (log ratio)” value is not above -4.2. Under U15G C76G G86C A122U G133C A142G U148G stands not above -4.2; under C87U C93G A121U C132A, not above -4.2. The value for C51U U56A C87A C95U C118A U139C was not above -4.2; that for A89C C93G C96U U148G was not above -4.2. Under U13C C93A C96A stands -3.63; under A17U C27G G58C C96A C116U, not above -4.2. As to U55G G68C A107C C125A U151G, the “polymerase ribozyme fitness (log ratio)” value is not above -4.2. Regarding G25U C76U, the “polymerase ribozyme fitness (log ratio)” value was -2.44. Under A17U C36G G67U C87G C95G C99A C103A stands not above -4.2; under G42A G58A G100C, not above -4.2.

G83A A91U G100U: the “polymerase ribozyme fitness (log ratio)” value is not above -4.2. Under G68A C76A G86A U102C G124C G152A stands not above -4.2; under A16G C35G U53A C57U G84U C105G A150U, not above -4.2.

In the case of G83A C105A, the “polymerase ribozyme fitness (log ratio)” value was -3.15.

With G50A C72U A98C C99A, the “polymerase ribozyme fitness (log ratio)” value is not above -4.2.

On to A23G, for which the “polymerase ribozyme fitness (log ratio)” value is -1.78.

As to G50U A106G, the “polymerase ribozyme fitness (log ratio)” value came out at 0.264. With C51U U61C C76U G94C A121U C125G U145A, the “polymerase ribozyme fitness (log ratio)” value is not above -4.2. Under A20U A28U G42C G86U C93A C114U stands -4.17; under A23G C27U C125A G143U, not above -4.2; under U55A C103U, -0.726. In the case of A21G C27G U33C G58C C96U A97U A106G G141U, the “polymerase ribozyme fitness (log ratio)” value was not above -4.2.

As to U13C U78G C85A C116U, the “polymerase ribozyme fitness (log ratio)” value was not above -4.2. Consider C35A U77C G83A A106C G126A U134G, for which the “polymerase ribozyme fitness (log ratio)” value is not above -4.2. The value for C27A C54U A91C G94C was not above -4.2; that for A49C U101G G141U was -1.78. For U55G G84U A98C U151C, the “polymerase ribozyme fitness (log ratio)” value was not above -4.2. The value for C36A C75A C87G A106U C149G was not above -4.2. Under C35U C76U C99U stands -1.5; under G50A C54U C57A G84U C103G G124C G133U G141C, not above -4.2; under A30U C79U G83C, not above -4.2. As for C54U U82C C95A G141U, the “polymerase ribozyme fitness (log ratio)” value is -2.99.

For C27G C72A C96A A107U, the “polymerase ribozyme fitness (log ratio)” value is not above -4.2. Under U6G A40U A66G U82A C96A G100U stands not above -4.2; under C69U G128C U130C C132G U135A A138C, not above -4.2. Take A29U C35G C95G: the “polymerase ribozyme fitness (log ratio)” value is -4.03. The value for C54U C96U U144G was 0.217; that for C32G U56A G94A C108U G124C U145A was not above -4.2. The value for A30U A73U G74U C76G U90G U139C was not above -4.2; that for A47C A73G was -0.266; that for A21U U33G A49C G50C C54A U82G G92U was not above -4.2. Under A28C G59U A91G U135C stands not above -4.2; under U56A C79U G83A, not above -4.2; under C51A G86U C108G A137C, not above -4.2.

As to U13G G141C, the “polymerase ribozyme fitness (log ratio)” value was -1.88.

U6C A73U G84A G100U G124A C125G U145G: the “polymerase ribozyme fitness (log ratio)” value is not above -4.2.

As to C87U A89G, the “polymerase ribozyme fitness (log ratio)” value was -3.41. Under A24U A30U G59A U101C U102G A121U G126C A142C stands not above -4.2; under G70C G84U A107U, not above -4.2. The value for A24G U53A C96G A122G A142C was not above -4.2; that for A30U U61G G68A C93U C103G A147C was not above -4.2; that for A29C G59U G92C C96A A107G C125U U127G was not above -4.2. Under U33G A47C A52C U53A A73U C87G stands not above -4.2; under C27G A66G C87U U109A A113U, not above -4.2.

Turning to C99U A150G, the “polymerase ribozyme fitness (log ratio)” value is -0.552.

With C18U A40U G143C, the “polymerase ribozyme fitness (log ratio)” value is -2.98. Turning to C27U G84A, the “polymerase ribozyme fitness (log ratio)” value is -1.66. Regarding G84U U130A U145C, the “polymerase ribozyme fitness (log ratio)” value was -4.13. Under U6G C85U stands -0.35; under C5A C8G A21U C54G C57U G58A C69A G81A A115U G133C G143U, not above -4.2. Under A19C A60C U102G U109G U151G stands not above -4.2; under A52C U53A G86A C87U C105A A106U, not above -4.2. Under A60U G84U U102G stands -4.18; under A21G A98U C129A U144A, -3.61; under G50C G141U, -2.26. For the variant U44G A91C G126A G143C, the “polymerase ribozyme fitness (log ratio)” value is not above -4.2. As to C76U G84A C118U U134A G140C U151A, the “polymerase ribozyme fitness (log ratio)” value is not above -4.2. The value for A23G G46A U56A C87A G141C was not above -4.2; that for G46C G68A U101G G117U was not above -4.2. Under A16G U55A G83A G117U stands -1.7; under C93U A110U, -4.1. Under G50C C96A stands -3.01; under C57U U78A G80A A138G U139G, not above -4.2. Turning to C57G U82A A98G, the “polymerase ribozyme fitness (log ratio)” value was -3.69.

On to C63U G86A, for which the “polymerase ribozyme fitness (log ratio)” value was -2.99. The value for A29G C93A A122G G124A was not above -4.2; that for A37C G59A G81A C96A was -2.74. Under A47C C95U C96U C118U C131U stands -1.83; under A17G A23G G48C A91U U104A, not above -4.2; under U4A A29G U61A G94U G126U G133U U151G, not above -4.2.

On to U56A A115G G124C, for which the “polymerase ribozyme fitness (log ratio)” value is -1.61. The value for G84U G92C A121U was -2.94; that for A91G G143C was -3.43. As for U7C A17G A119U, the “polymerase ribozyme fitness (log ratio)” value is -3.03. The value for C87U U145G was -1.51; that for U78G G141A was not above -4.2; that for U82G C125G was -1.76. Under A39C G84A stands -3.26. Under U55A U56C G58A G92C A119U U145G stands -2.87. Turning to G83U A107U G141U, the “polymerase ribozyme fitness (log ratio)” value is not above -4.2. Under A16C U56C C87U stands -2.13; under C32U G84A, -2.55; under A20U G46A C76A C87G G94C C105G U144A, not above -4.2.

As for G94A G141C, the “polymerase ribozyme fitness (log ratio)” value is -2.23. Under C10G G25U U55A G88A A106G U130A A150G stands not above -4.2. The value for A22G A23U C35A C75A C95G was not above -4.2; that for C75A C95G C96U was not above -4.2; that for C14G C69G C96A G124A was -3.69. The value for G58C C75G C76G C85U was not above -4.2.

As for A23U C43A C69G C99G U139A U144A, the “polymerase ribozyme fitness (log ratio)” value is not above -4.2. The value for C57A G124U was -0.787. Under A49C G70A C75G C93G A97C C116G C118G stands not above -4.2. Under C116U U146C stands -0.11; under A49C G67A G92U A138C, not above -4.2.

With A47U G84C C93U, the “polymerase ribozyme fitness (log ratio)” value is not above -4.2. In the case of A12C U15A U56A, the “polymerase ribozyme fitness (log ratio)” value was -0.709. The value for C38U C72U C95G was -0.675; that for U45A C69A G88C A97C C125G was not above -4.2; that for G86A A142C was -2.27. Under G50A C54U A91U C93U A107C C108A C132G A138U U148G stands not above -4.2; under C5G G34A C38U C43U G83A, not above -4.2.

Turning to A19U C69G C72U G84A, the “polymerase ribozyme fitness (log ratio)” value was -3.03. On to C54U C63G G67C G143A, for which the “polymerase ribozyme fitness (log ratio)” value is not above -4.2. As to A20C C93U, the “polymerase ribozyme fitness (log ratio)” value was -1.41. For U7A C76U G94A C105U U151A, the “polymerase ribozyme fitness (log ratio)” value was -3.84. The value for U45A C69A C95U C99G G112U C114U A147U was not above -4.2; that for U15G G92U A147U was 0.901. As to G62A U130G, the “polymerase ribozyme fitness (log ratio)” value was -3.67. Take U15A G50U C95G C132G: the “polymerase ribozyme fitness (log ratio)” value is not above -4.2. The value for C85G G94A C95G U135A was -3.95; that for A60C G67C A73G G81A C114A G136C was not above -4.2. Consider A97U U151G, for which the “polymerase ribozyme fitness (log ratio)” value was not above -4.2. The value for A23G A26U C54A U90G A91G was not above -4.2; that for C5G A41G C85U C95U A122U C132A was -3.5. The value for G80U U109C G143C was -4.04; that for C51U C54U C85A A98U was -2.81. The value for A16C A110G was -3.67; that for A23G U33G G100C U148C was not above -4.2; that for U31A G65U C93G U135C was not above -4.2.

Take C57G C96A U139G: the “polymerase ribozyme fitness (log ratio)” value is -0.754. Under G48A C99U U111A A137G A147C stands not above -4.2; under C51A C57U U146G, -1.67.

As for A26U A60U U111G G141U, the “polymerase ribozyme fitness (log ratio)” value was -3.78. Under A60G G117C G124U stands 0.122; under U45A G65A G86U, not above -4.2; under C14G C85U, -2.1. The value for C14G C75U G94C A122U G124A was -3.86. In the case of A20U G42U U55G G62A, the “polymerase ribozyme fitness (log ratio)” value is not above -4.2.

These data come from the RNAGym collection of RNA variant scans (doi:10.1073/pnas.2313332121).
